These results are taken from publication PMC10837205 (Cell Research, 2024).

In this test the target is T1, biotinylated soluble human LDLR (sohLDLR) (human, UniProt P01130-1 22-788, biotin (biotinylated; site not stated)).
T1 construct: also called biotinylated LDLR; soluble biotinylated LDLR; source: bought: SinoBiological #10231-H08H-B
Briefly: BLI. As to conditions: both partners purified.

T1 sequence (P01130 22-788): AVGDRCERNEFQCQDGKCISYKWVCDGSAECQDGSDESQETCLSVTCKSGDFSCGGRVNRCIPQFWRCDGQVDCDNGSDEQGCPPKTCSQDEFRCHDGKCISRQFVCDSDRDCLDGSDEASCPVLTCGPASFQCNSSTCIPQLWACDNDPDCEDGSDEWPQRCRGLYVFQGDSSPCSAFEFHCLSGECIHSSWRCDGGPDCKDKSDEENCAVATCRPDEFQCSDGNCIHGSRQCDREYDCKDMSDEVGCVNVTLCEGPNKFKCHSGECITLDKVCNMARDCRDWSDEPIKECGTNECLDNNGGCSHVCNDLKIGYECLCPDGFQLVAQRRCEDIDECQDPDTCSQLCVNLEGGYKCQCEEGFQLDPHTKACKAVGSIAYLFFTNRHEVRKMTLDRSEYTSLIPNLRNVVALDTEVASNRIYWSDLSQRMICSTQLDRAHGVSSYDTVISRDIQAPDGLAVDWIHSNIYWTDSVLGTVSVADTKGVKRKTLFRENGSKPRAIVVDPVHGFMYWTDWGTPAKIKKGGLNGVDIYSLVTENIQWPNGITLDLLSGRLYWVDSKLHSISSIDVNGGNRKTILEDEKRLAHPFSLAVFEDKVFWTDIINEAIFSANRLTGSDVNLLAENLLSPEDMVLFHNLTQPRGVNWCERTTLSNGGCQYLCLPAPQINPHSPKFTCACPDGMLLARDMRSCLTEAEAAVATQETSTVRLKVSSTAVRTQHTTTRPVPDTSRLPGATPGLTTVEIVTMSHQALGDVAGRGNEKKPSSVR

B1: VSV G protein (Indiana strain) (natural protein)
chain: KFTIVFPHNQKGNWKNVPSNYHYCPSSSDLNWHNDLIGTAIQVKMPKSHKAIQADGWMCHASKWVTTCDFRWYGPKYITQSIRSFTPSVEQCKESIEQTKQGTWLNPGFPPQSCGYATVTDAEAVIVQVTPHHVLVDEYTGEWVDSQFINGKCSNYICPTVHNSTTWHSDYKVKGLCDSNLISMDITFFSEDGELSSLGKEGTGFRSNYFAYETGGKACKMQYCKHWGVRLPSGVWFEMADKDLFAAARFPECPEGSSISAPSQTSVDVSLIQDVERILDYSLCQETWSKIRAGLPISPVDLSYLAPKNPGTGPAFTIINGTLKYFETRYIRVDIAAPILSRMVGMISGTTTERELWDDWAPYEDVEIGPNGVLRTSSGYKFPLYMIGHGMLDSDLHLSSKAQVFEHPHIQDAASQLPDDESLFFGDTGLSKNPIELVEGWFSSWKSSIASFFFIIGLIIGLFLVLRVGIHLCIKLKHTKKRQIYTDIEMNRLGK
For the molecule B1, the affinity, expressed as Kd, was 54.3 nM.
